According to US20150344570A1 (published 2015):

Key:
FcγRIIb = molecular target: T1, FcγRIIb (human, UniProt P31994 43-217); assay: SPR (Biacore), captured antibody, FcγR as analyte; GpH7-A5/GpH7-B3/GpL16-k0 = 100
T1 construct: extracellular domain; also called 2b; FcgRIIb
T1 sequence (looked up): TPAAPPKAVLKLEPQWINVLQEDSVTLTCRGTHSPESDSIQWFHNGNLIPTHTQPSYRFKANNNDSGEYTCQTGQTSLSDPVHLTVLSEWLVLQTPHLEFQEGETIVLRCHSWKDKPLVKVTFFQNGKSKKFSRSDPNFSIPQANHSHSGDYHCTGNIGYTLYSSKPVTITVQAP
Method: (§1) The heterodimerized antibodies He Abs in which one of the H chains was introduced with an alteration were assayed for their binding activities to each activating FcγR and inhibitory FcγR according to the method described in Example 4. […] The activating FcγRs in FIGS. 26, 27, 28, and 29 are FcγRIa, FcγRIIa (R), FcγRIIa (H), and FcγRIIIa, respectively.
(§2) Analysis of interaction between objective antibody and the FcγR was carried out using Biacore T100 (GE Healthcare). HBS-EP+ (GE Healthcare) was used as the running buffer, and the measurement temperature was set to 25° C. Chips produced by immobilizing the antigen peptide by the amine coupling method to a Series S Sencor Chip CM5 (GE Healthcare), or alternatively, chips produced by allowing preliminarily biotinylated antigen peptides to interact with and immobilize onto a Series S Sensor Chip SA (certified) (GE Healthcare) were used. Antibodies of interest were captured onto an antigen peptide-immobilized chip, and allowed to interact to each FcγR diluted with running buffer. To regenerate and repeatedly use the chip, the antibodies captured on the chip were washed off by reacting 10 mM glycine-HCl, pH 1.5.

FcγRIIa H [1] = molecular target: T2, FcγRIIa H (human, UniProt P12318 34-217); assay: as above
T2 construct: extracellular domain; also called FcγRIIa type H; 2aH
T2 sequence (looked up): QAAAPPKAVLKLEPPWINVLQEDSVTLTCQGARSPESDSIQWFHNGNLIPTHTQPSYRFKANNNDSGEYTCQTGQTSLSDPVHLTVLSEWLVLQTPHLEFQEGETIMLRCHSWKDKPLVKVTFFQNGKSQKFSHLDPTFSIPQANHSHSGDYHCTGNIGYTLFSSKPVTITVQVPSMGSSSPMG
Method: as §1, §2

FcγRIIa H [2] = molecular target: T2, FcγRIIa H; assay: ratio of He/Con_2aH to He/Con_2b (FcγRIIb); SPR

Binder | He/Con_2b (relative binding) (FcγRIIb) [%] | He/Con_2aH (relative binding) (FcγRIIa H [1]) [%] | He_2aH/2b (IIaH/IIb ratio) (FcγRIIa H [2])
GpH7-A5/GpH7-B3 variant D270_01G/GpL16-k0 (antibody, human IgG1, kappa, Heterodimerized anti-glypican-3 IgG1 (He Ab); mutation in the B3 H chain only; also called He Ab) heavy 1: not shown heavy 2: not shown light: DIVMTQSPLSLPVTPGEPASISCQASESLVHSNRNTYLHWYLQKPGQSPQLLIYKVSNRFSGVPDRFSGSGSGTDFTLKISRVEAEDVGVYYCSQNTHVPPTFGQGTKVEIERTVAAPSVFIFPPSDEQLKSGTASVVCLLNNFYPREAKVQWKVDNALQSGNSQESVTEQDSKDSTYSLSSTLTLSKADYEKHKVYACEVTHQGLSSPVTKSFNRGEC | 30.5 | 52.5 | 1.72
GpH7-A5/GpH7-B3 variant D270_06M/GpL16-k0 (antibody, human IgG1, kappa, Heterodimerized anti-glypican-3 IgG1 (He Ab); mutation in the B3 H chain only; also called He Ab) heavy 1: not shown heavy 2: not shown light: DIVMTQSPLSLPVTPGEPASISCQASESLVHSNRNTYLHWYLQKPGQSPQLLIYKVSNRFSGVPDRFSGSGSGTDFTLKISRVEAEDVGVYYCSQNTHVPPTFGQGTKVEIERTVAAPSVFIFPPSDEQLKSGTASVVCLLNNFYPREAKVQWKVDNALQSGNSQESVTEQDSKDSTYSLSSTLTLSKADYEKHKVYACEVTHQGLSSPVTKSFNRGEC | 48.2 | 74.4 | 1.54
GpH7-A5/GpH7-B3 variant D270_10E/GpL16-k0 (antibody, human IgG1, kappa, Heterodimerized anti-glypican-3 IgG1 (He Ab); mutation in the B3 H chain only; also called He Ab) heavy 1: not shown heavy 2: not shown light: DIVMTQSPLSLPVTPGEPASISCQASESLVHSNRNTYLHWYLQKPGQSPQLLIYKVSNRFSGVPDRFSGSGSGTDFTLKISRVEAEDVGVYYCSQNTHVPPTFGQGTKVEIERTVAAPSVFIFPPSDEQLKSGTASVVCLLNNFYPREAKVQWKVDNALQSGNSQESVTEQDSKDSTYSLSSTLTLSKADYEKHKVYACEVTHQGLSSPVTKSFNRGEC | 76.5 | 102 | 1.34
GpH7-A5/GpH7-B3 variant D270_16H/GpL16-k0 (antibody, human IgG1, kappa, Heterodimerized anti-glypican-3 IgG1 (He Ab); mutation in the B3 H chain only; also called He Ab) heavy 1: not shown heavy 2: not shown light: DIVMTQSPLSLPVTPGEPASISCQASESLVHSNRNTYLHWYLQKPGQSPQLLIYKVSNRFSGVPDRFSGSGSGTDFTLKISRVEAEDVGVYYCSQNTHVPPTFGQGTKVEIERTVAAPSVFIFPPSDEQLKSGTASVVCLLNNFYPREAKVQWKVDNALQSGNSQESVTEQDSKDSTYSLSSTLTLSKADYEKHKVYACEVTHQGLSSPVTKSFNRGEC | 47.2 | 71.5 | 1.51
GpH7-A5/GpH7-B3 variant D270_08L/GpL16-k0 (antibody, human IgG1, kappa, Heterodimerized anti-glypican-3 IgG1 (He Ab); mutation in the B3 H chain only; also called He Ab) heavy 1: not shown heavy 2: not shown light: DIVMTQSPLSLPVTPGEPASISCQASESLVHSNRNTYLHWYLQKPGQSPQLLIYKVSNRFSGVPDRFSGSGSGTDFTLKISRVEAEDVGVYYCSQNTHVPPTFGQGTKVEIERTVAAPSVFIFPPSDEQLKSGTASVVCLLNNFYPREAKVQWKVDNALQSGNSQESVTEQDSKDSTYSLSSTLTLSKADYEKHKVYACEVTHQGLSSPVTKSFNRGEC | 53.6 | 75.8 | 1.41
GpH7-A5/GpH7-B3 variant D270_12R/GpL16-k0 (antibody, human IgG1, kappa, Heterodimerized anti-glypican-3 IgG1 (He Ab); mutation in the B3 H chain only; also called He Ab) heavy 1: not shown heavy 2: not shown light: DIVMTQSPLSLPVTPGEPASISCQASESLVHSNRNTYLHWYLQKPGQSPQLLIYKVSNRFSGVPDRFSGSGSGTDFTLKISRVEAEDVGVYYCSQNTHVPPTFGQGTKVEIERTVAAPSVFIFPPSDEQLKSGTASVVCLLNNFYPREAKVQWKVDNALQSGNSQESVTEQDSKDSTYSLSSTLTLSKADYEKHKVYACEVTHQGLSSPVTKSFNRGEC | 18.3 | 39.5 | 2.16
GpH7-A5/GpH7-B3 variant D270_07I/GpL16-k0 (antibody, human IgG1, kappa, Heterodimerized anti-glypican-3 IgG1 (He Ab); mutation in the B3 H chain only; also called He Ab) heavy 1: not shown heavy 2: not shown light: DIVMTQSPLSLPVTPGEPASISCQASESLVHSNRNTYLHWYLQKPGQSPQLLIYKVSNRFSGVPDRFSGSGSGTDFTLKISRVEAEDVGVYYCSQNTHVPPTFGQGTKVEIERTVAAPSVFIFPPSDEQLKSGTASVVCLLNNFYPREAKVQWKVDNALQSGNSQESVTEQDSKDSTYSLSSTLTLSKADYEKHKVYACEVTHQGLSSPVTKSFNRGEC | 41.5 | 64 | 1.54
GpH7-A5/GpH7-B3 variant D270_14T/GpL16-k0 (antibody, human IgG1, kappa, Heterodimerized anti-glypican-3 IgG1 (He Ab); mutation in the B3 H chain only; also called He Ab) heavy 1: not shown heavy 2: not shown light: DIVMTQSPLSLPVTPGEPASISCQASESLVHSNRNTYLHWYLQKPGQSPQLLIYKVSNRFSGVPDRFSGSGSGTDFTLKISRVEAEDVGVYYCSQNTHVPPTFGQGTKVEIERTVAAPSVFIFPPSDEQLKSGTASVVCLLNNFYPREAKVQWKVDNALQSGNSQESVTEQDSKDSTYSLSSTLTLSKADYEKHKVYACEVTHQGLSSPVTKSFNRGEC | 57.8 | 75.3 | 1.3
GpH7-A5/GpH7-B3 variant D270_02A/GpL16-k0 (antibody, human IgG1, kappa, Heterodimerized anti-glypican-3 IgG1 (He Ab); mutation in the B3 H chain only; also called He Ab) heavy 1: not shown heavy 2: not shown light: DIVMTQSPLSLPVTPGEPASISCQASESLVHSNRNTYLHWYLQKPGQSPQLLIYKVSNRFSGVPDRFSGSGSGTDFTLKISRVEAEDVGVYYCSQNTHVPPTFGQGTKVEIERTVAAPSVFIFPPSDEQLKSGTASVVCLLNNFYPREAKVQWKVDNALQSGNSQESVTEQDSKDSTYSLSSTLTLSKADYEKHKVYACEVTHQGLSSPVTKSFNRGEC | 48.3 | 76.4 | 1.58
GpH7-A5/GpH7-B3 variant D270_13S/GpL16-k0 (antibody, human IgG1, kappa, Heterodimerized anti-glypican-3 IgG1 (He Ab); mutation in the B3 H chain only; also called He Ab) heavy 1: not shown heavy 2: not shown light: DIVMTQSPLSLPVTPGEPASISCQASESLVHSNRNTYLHWYLQKPGQSPQLLIYKVSNRFSGVPDRFSGSGSGTDFTLKISRVEAEDVGVYYCSQNTHVPPTFGQGTKVEIERTVAAPSVFIFPPSDEQLKSGTASVVCLLNNFYPREAKVQWKVDNALQSGNSQESVTEQDSKDSTYSLSSTLTLSKADYEKHKVYACEVTHQGLSSPVTKSFNRGEC | 44.2 | 71.2 | 1.61
GpH7-A5/GpH7-B3 variant D270_15Y/GpL16-k0 (antibody, human IgG1, kappa, Heterodimerized anti-glypican-3 IgG1 (He Ab); mutation in the B3 H chain only; also called He Ab) heavy 1: not shown heavy 2: not shown light: DIVMTQSPLSLPVTPGEPASISCQASESLVHSNRNTYLHWYLQKPGQSPQLLIYKVSNRFSGVPDRFSGSGSGTDFTLKISRVEAEDVGVYYCSQNTHVPPTFGQGTKVEIERTVAAPSVFIFPPSDEQLKSGTASVVCLLNNFYPREAKVQWKVDNALQSGNSQESVTEQDSKDSTYSLSSTLTLSKADYEKHKVYACEVTHQGLSSPVTKSFNRGEC | 44.9 | 71.9 | 1.6
GpH7-A5/GpH7-B3 variant D270_04F/GpL16-k0 (antibody, human IgG1, kappa, Heterodimerized anti-glypican-3 IgG1 (He Ab); mutation in the B3 H chain only; also called He Ab) heavy 1: not shown heavy 2: not shown light: DIVMTQSPLSLPVTPGEPASISCQASESLVHSNRNTYLHWYLQKPGQSPQLLIYKVSNRFSGVPDRFSGSGSGTDFTLKISRVEAEDVGVYYCSQNTHVPPTFGQGTKVEIERTVAAPSVFIFPPSDEQLKSGTASVVCLLNNFYPREAKVQWKVDNALQSGNSQESVTEQDSKDSTYSLSSTLTLSKADYEKHKVYACEVTHQGLSSPVTKSFNRGEC | 53.1 | 75.4 | 1.42
GpH7-A5/GpH7-B3 variant D270_03V/GpL16-k0 (antibody, human IgG1, kappa, Heterodimerized anti-glypican-3 IgG1 (He Ab); mutation in the B3 H chain only; also called He Ab) heavy 1: not shown heavy 2: not shown light: DIVMTQSPLSLPVTPGEPASISCQASESLVHSNRNTYLHWYLQKPGQSPQLLIYKVSNRFSGVPDRFSGSGSGTDFTLKISRVEAEDVGVYYCSQNTHVPPTFGQGTKVEIERTVAAPSVFIFPPSDEQLKSGTASVVCLLNNFYPREAKVQWKVDNALQSGNSQESVTEQDSKDSTYSLSSTLTLSKADYEKHKVYACEVTHQGLSSPVTKSFNRGEC | 39.5 | 61.8 | 1.56
GpH7-A5/GpH7-B3 variant D270_11K/GpL16-k0 (antibody, human IgG1, kappa, Heterodimerized anti-glypican-3 IgG1 (He Ab); mutation in the B3 H chain only; also called He Ab) heavy 1: not shown heavy 2: not shown light: DIVMTQSPLSLPVTPGEPASISCQASESLVHSNRNTYLHWYLQKPGQSPQLLIYKVSNRFSGVPDRFSGSGSGTDFTLKISRVEAEDVGVYYCSQNTHVPPTFGQGTKVEIERTVAAPSVFIFPPSDEQLKSGTASVVCLLNNFYPREAKVQWKVDNALQSGNSQESVTEQDSKDSTYSLSSTLTLSKADYEKHKVYACEVTHQGLSSPVTKSFNRGEC | 20.3 | 44 | 2.17
